Key:
Experiment in all cases: covalent modification by UbVS (immunoblot of UbVS adducts)
[1] = target: T1, UCH37 (Bos taurus, UniProt Q9XSJ0); assay type: biochemical, bovine; conditions: reactions in the presence of 19S RP, relative to the USP14 adduct; FIG. 5C lanes 2 and 4
T1 construct: UCH37 was present in the reactions as a stoichiometric component of the 19S RP complex; from tissue; host or cells: bovine 19S complex (PA700), gift
T1 sequence (Q9XSJ0 1-328): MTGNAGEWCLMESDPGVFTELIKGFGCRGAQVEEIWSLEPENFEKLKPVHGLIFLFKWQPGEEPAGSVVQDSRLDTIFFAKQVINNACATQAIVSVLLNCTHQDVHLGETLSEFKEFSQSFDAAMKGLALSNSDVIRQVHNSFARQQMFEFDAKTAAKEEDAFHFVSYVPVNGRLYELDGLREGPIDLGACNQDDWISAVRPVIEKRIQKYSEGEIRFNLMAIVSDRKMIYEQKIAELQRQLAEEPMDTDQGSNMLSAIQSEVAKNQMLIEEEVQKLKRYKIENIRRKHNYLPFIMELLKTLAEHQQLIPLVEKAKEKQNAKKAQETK
T1 sequence (A1L5A6 1-407 partner): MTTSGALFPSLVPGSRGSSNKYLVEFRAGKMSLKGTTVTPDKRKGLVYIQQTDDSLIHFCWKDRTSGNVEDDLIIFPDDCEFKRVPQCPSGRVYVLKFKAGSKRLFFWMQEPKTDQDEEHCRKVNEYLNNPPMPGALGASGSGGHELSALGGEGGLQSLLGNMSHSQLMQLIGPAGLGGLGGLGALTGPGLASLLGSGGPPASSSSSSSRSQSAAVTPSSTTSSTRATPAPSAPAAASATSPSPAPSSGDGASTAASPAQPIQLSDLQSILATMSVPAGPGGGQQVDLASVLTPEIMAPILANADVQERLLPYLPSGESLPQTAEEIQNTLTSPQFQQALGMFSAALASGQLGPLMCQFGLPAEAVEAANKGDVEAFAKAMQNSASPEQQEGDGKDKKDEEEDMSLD
Method: Two factors contribute to this observation.
(§1) UbVS was prepared as previously described (Borodovsky et al. (2001) supra). […] UbVS was then added to the sample to give approximately 1:1 stoichiometry with the 19S complex. Incubation was continued for another hour and then stopped by the addition of 2×SDS sample buffer. The reaction mixtures were resolved by 14% SDS-PAGE, transferred to nitrocellulose membrane, and the UbVS adducts were detected with mouse monoclonal anti-ubiquitin antibody (P4D1) (Santa Cruz).

[2] = target: T2, full-length USP14 (Homo sapiens, UniProt P54578); assay type: biochemical
T2 construct: 3.5 μM full-length USP14 or USP14-AUBL (91-494) was incubated with or without 157 nM bovine 19S complex (PA700); GST (N); made in house
T2 sequence (P54578 whole entry): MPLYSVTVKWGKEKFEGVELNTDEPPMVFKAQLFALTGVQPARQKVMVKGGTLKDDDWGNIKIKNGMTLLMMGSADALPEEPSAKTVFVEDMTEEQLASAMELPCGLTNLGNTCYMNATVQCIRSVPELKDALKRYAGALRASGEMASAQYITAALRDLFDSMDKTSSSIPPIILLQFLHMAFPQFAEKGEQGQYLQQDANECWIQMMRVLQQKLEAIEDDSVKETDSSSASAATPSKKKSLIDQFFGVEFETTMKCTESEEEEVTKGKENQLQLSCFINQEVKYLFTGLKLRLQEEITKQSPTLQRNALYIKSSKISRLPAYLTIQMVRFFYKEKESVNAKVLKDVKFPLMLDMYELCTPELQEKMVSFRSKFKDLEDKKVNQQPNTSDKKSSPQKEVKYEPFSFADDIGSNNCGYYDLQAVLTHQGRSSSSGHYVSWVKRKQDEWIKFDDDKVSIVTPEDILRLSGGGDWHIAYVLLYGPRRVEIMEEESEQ
Method: (§2) Ubiquitin vinylsulfone (UbVS) is a specific covalent inhibitor of a large subset of deubiquitinating enzymes, and thus can be used as an active site-directed probe for the detection of DUB activity (Borodovsky et al. (2001) supra). In order to examine the effect of proteasome association on the activity of USP14, the purified recombinant USP14 proteins were pre-incubated with or without the 19S RP and then assayed for covalent modification by UbVS.
as §1

[3] = target: T3, USP14-ΔUBL (91-494) (Homo sapiens, UniProt P54578); assay type: biochemical; conditions: both in the absence and presence of the 19S regulatory particle; FIG. 5C lanes 1 and 2
T3 construct: 3.5 μM full-length USP14 or USP14-AUBL (91-494) was incubated with or without 157 nM bovine 19S complex (PA700); GST (N); made in house
T3 sequence (P54578 91-494, stated change not applied): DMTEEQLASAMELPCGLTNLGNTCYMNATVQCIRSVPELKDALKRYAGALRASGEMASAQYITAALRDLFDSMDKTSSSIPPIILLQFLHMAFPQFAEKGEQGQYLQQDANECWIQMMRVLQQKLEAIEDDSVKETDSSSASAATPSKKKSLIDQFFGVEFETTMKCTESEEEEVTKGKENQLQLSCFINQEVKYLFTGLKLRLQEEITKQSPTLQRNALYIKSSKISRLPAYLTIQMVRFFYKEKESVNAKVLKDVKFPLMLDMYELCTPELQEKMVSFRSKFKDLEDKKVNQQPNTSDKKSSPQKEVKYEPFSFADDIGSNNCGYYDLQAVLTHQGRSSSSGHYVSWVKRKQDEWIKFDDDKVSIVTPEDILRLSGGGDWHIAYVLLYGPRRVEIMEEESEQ
Method: as §2, §1

- UCH37-UbVS adduct detected [1]: only a trace amount
- USP14-UbVS complex formation ([2]; full-length USP14 with 19S regulatory particle added, FIG. 5C lane 4): strong USP14-UbVS band
- activity toward UbVS [3]: extremely low activity
Substance: Ubiquitin vinylsulfone [UbVS]
- USP14-UbVS complex formation ([2]; full-length USP14 by itself, without 19S RP, FIG. 5C lane 3): no detectable USP14-UbVS complex formation
